Drawing on patent US20090214427A1 (LICENTIA, published 2009), this text covers inhibition for 65 molecules.

Non-standard residues stand in square brackets, D forms with d. No end group written: not given here. Sar = CNCC(=O)O

The experiment concerns the target recombinant wild-type (wt) human kallikrein 2 (human, UniProt P20151 25-261). Nature of the experiment: cell-based or functional assay.
The term inhibition denotes the relative decrease from the control value, in per cent. With GRRPFPVTAG-OH [… as printed in Table 6 (SEQ ID NO:33)], the inhibition turned out to be 2%.
As for GAARAPFPAPSG [GAARAPFPAPSG (SEQ ID NO:9)], the figure is 0%; as for GPARRPFPG-OH [GPARRPFPG (SEQ ID NO:26)], 33%.
GAARRPFPAASG [GAARRPFPAASG (SEQ ID NO:13)]: the inhibition amounted to 69%.
In the case of RRPFP [RRPFP (SEQ ID NO:40)], the inhibition is 0%.
Consider ARFKVWWA-NH2 [ARFKVWWA(CONH2) (SEQ ID NO:82)], for which the inhibition was determined as 86%.
Then Ac-ARFKVWWAA [Ac-ARFKVWWAA (SEQ ID NO:81)], with 93%; and GPFPVTAG-OH [GFFPVTAG as printed in Table 6 (SEQ ID NO:35)], with 0%.
Consider GPARRPFPVG-OH [GPARRPFPVG (SEQ ID NO:25)], for which the inhibition worked out at 37%.
For the molecule GRRPFPG-OH [GRRPFPG (SEQ ID NO:44)], the inhibition turned out to be 0%.
Then AARRPAPG-OH [AARRPAPG (SEQ ID NO:45)], with 36%.
Regarding SRFKVWWAG-OH [SRFKVWWAG (SEQ ID NO:68)], the inhibition stood at 80%.
As for GPARRPFG-OH [GPARRPFG (SEQ ID NO:27)], the figure is 0%.
Then RRPAG-OH [RRPAG (SEQ ID NO:41)], with 0%; and GPAARPFPVTAG-OH [GPAARPFPVTAG (SEQ ID NO:17)], with 0%.
As for SRFKAWWAAG-OH [SRFKAWWAAG (SEQ ID NO:60)], the figure is 39%; as for Ac-ARFKVWWGG [Ac-ARFKVWWGG (SEQ ID NO:77)], 92%; as for SRFKVG-OH [SRFKVG (SEQ ID NO:71)], 7%.
As for SRAKVWWAAG-OH [SRAKVWWAAG (SEQ ID NO:58)], the inhibition stood at 0%.
As for GAARRPFPVTAG [GAARRPFPVTAG (SEQ ID NO:16)], the figure is 61%.
Turning to GPARRPFAVTAG-OH [GPARRPFAVTAG (SEQ ID NO:21)], the inhibition came out at 17%.
Then GPARRAFPVTAG-OH [GPARRAFPVTAG (SEQ ID NO:19)], with 0%; and GPARRPG-OH [GFARRFG as printed in Table 6 (SEQ ID NO:28)], with 4%.
Regarding GAAARPFPAPSG [GAAARPFPAPSG (SEQ ID NO:8)], the inhibition was found to be 0%.
On to Ac-SRFKVWWG [Ac-SRFKVWWG (SEQ ID NO:74)], for which the inhibition turned out to be 86%.
Then GARRPFPVTAG [GARRPFPVTAG (SEQ ID NO:32)], with 27%.
Then GPARRPFPVTG-OH [GPARRPFPVTG (SEQ ID NO:24)], with 48%.
As for GAARRAFPAPSG [GAARRAFPAPSG (SEQ ID NO:10)], the figure is 0%; as for GPARG-OH [GPARG (SEQ ID NO:30)], 0%; as for SRFKVAWAAG-OH [SRFKVAWAAG (SEQ ID NO:61)], 10%.
Regarding GFPVTAG-OH [GFFVTAG as printed in Table 6 (SEQ ID NO:36)], the inhibition was 0%.
Then GAARR[Sar]FPAPG [GAARR-Sar-FPAPG (SEQ ID NO:52)], with 0%; and GAARRPFPAPAG [GAARRPFPAPAG (SEQ ID NO:14)], with 78%.
Then GAARRPF[Sar]APG [GAARRPF-Sar-APG (SEQ ID NO:53)], with 24%; and GPARRPFPATAG-OH [GPARRPFPATAG (SEQ ID NO:22)], with 58%; and GRRPAPG-OH [GRRPAPG (SEQ ID NO:43)], with 0%.
On to GAARRPFAAPSG [GAARRPFAAPSG (SEQ ID NO:12)], for which the inhibition was 24%.
Regarding AAARRPFPG [AAARRPFPG (SEQ ID NO:48)], the inhibition turned out to be 37%.
As for WWAAG-OH [WWAAG (SEQ ID NO:67)], the figure is 0%.
With RRPAP [RRPAP (SEQ ID NO:39)], the inhibition is 0%.
Then ARFKVWWGG [ARFKVWWGG (SEQ ID NO:78)], with 93%; and AARRPFPG [AARRPFPG (SEQ ID NO:47)], with 28%; and AAARRPAPG [AAARRPAPG (SEQ ID NO:46)], with 51%.
Then GVTAG-OH [GVTAG (SEQ ID NO:38)], with 0%; and GPVTAG-OH [GFVTAG as printed in Table 6 (SEQ ID NO:37)], with 0%; and GAARR[Sar]F[Sar]APG [GAARR-Sar-F-Sar-APG (SEQ ID NO:54)], with 0%.
In the case of RRPFG-OH [RRPFG (SEQ ID NO:42)], the inhibition was 0%.
As for GRPFPVTAG-OH [… as printed in Table 6 (SEQ ID NO:34)], the figure is 0%.
As for GPARRG-OH [GPARRG (SEQ ID NO:29)], the figure is 8%.
On to FKVWWAAG [FKVWWAAG (SEQ ID NO:66)], for which the inhibition was 0%.
For the molecule SRFKVWAAAG-OH [SRFKVWAAAG (SEQ ID NO:62)], the inhibition is 30%.
Regarding ARFKVWWA [ARFKVWWA (SEQ ID NO:79)], the inhibition came out at 95%.
Then RFKVWWAAG-OH [RFKVWWAAG (SEQ ID NO:65)], with 22%; and GAARRPFPAPG [GAARRPFPAPG (SEQ ID NO:51)], with 69%.
Then Ac-ARFKVWWA [Ac-ARFKVWWA (SEQ ID NO:80)], with 94%; and ARFKVWWG [ARFKVWWG (SEQ ID NO:75)], with 94%.
Take GPARRPAPVTAG-OH [GPARRPAPVTAG (SEQ ID NO:20)]: the inhibition worked out at 49%.
For GAARRPFPAPSG [GAARRPFPAPSG (SEQ ID NO:7)], the inhibition amounted to 77%.
Regarding GPARRPFPVAAG-OH [GPARRPFPVAAG (SEQ ID NO:23)], the inhibition came to 45%.
In the case of GAARRPAPAPSG [GAARRPAPAPSG (SEQ ID NO:11)], the inhibition amounted to 75%.
As for SRFAVWWAAG-OH [SRFAVWWAAG (SEQ ID NO:59)], the figure is 0%.
For the molecule SRFKG-OH [SRFKG (SEQ ID NO:72)], the inhibition came out at 0%.
Then SRFKVWG-OH [SRFKVWG (SEQ ID NO:70)], with 8%; and Ac-ARFKVWWG [Ac-ARFKVWWG (SEQ ID NO:76)], with 93%; and GPARAPFPVTAG-OH [GPARAPFPVTAG (SEQ ID NO:18)], with 0%.
